In patent EP2386565A2, “Compounds and methods to inhibit or augment an inflammatory response” (Cambridge Enterprise Ltd., priority 1999, dated 2000):
pKd: −log10 of the molar value. Values joined by “and” are separate entries in the source; they are usually repeats but may differ in a detail not shown here. Identical values can stand only once.

Legend:
[1] = biological target: T1, Duffy Antigen Receptor for Chemokines (DARC) (human) (UniProt Q16570); experiment: footnote c of Table 6; given as affinity constant
T1 sequence (looked up): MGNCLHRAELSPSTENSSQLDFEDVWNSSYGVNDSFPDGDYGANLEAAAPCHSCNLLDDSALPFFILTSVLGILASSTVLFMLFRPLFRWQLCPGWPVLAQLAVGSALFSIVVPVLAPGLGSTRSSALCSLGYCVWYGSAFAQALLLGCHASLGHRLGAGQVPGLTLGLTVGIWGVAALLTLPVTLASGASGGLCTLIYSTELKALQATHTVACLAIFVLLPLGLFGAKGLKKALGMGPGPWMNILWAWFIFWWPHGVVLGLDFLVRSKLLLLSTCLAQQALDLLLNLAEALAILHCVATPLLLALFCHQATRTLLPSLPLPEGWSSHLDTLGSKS

[2] = biological target: CCR5 (human) (UniProt P51681); experiment: 12-point Scatchard analysis, 0.03 nM 125I-RANTES on HOS CCR5 cells and parental line, 4°C, 2 hours
Chain of CCR5 (human) (P51681 whole entry): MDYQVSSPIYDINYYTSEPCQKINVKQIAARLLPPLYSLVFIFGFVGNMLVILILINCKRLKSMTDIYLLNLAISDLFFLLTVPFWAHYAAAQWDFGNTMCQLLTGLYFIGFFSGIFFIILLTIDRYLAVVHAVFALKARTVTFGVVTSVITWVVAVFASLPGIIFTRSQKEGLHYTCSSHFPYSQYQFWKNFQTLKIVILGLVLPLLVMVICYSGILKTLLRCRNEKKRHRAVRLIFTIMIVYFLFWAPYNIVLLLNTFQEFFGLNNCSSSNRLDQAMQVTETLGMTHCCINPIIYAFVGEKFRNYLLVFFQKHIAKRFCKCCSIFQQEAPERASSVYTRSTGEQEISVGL

[3] = biological target: chemokine receptors on the surface of Jurkat cells; experiment: biotinylated peptide on cells, streptavidin-peroxidase
[4] = biological target: chemokine receptors on THP-1 cells; experiment: 100 µM biotinylated peptide on THP-1 cells, alone minus excess unlabeled peptide
[5] = biological target: chemokine receptors on the surface of Jurkat cells; experiment: 100 µM biotinylated peptide on Jurkat cells, alone minus excess unlabeled peptide
[6] = biological target: chemokine receptors on THP-1 cells; experiment: 100 µM biotinylated peptide on THP-1 cells with 100-fold excess of the same unlabeled peptide
[7] = biological target: chemokine receptors on the surface of Jurkat cells; experiment: 100 µM biotinylated peptide on Jurkat cells with 100-fold excess of the same unlabeled peptide
[8] = biological target: chemokine receptors on the surface of Jurkat cells; experiment: 100 µM biotinylated peptide on Jurkat cells (10^6 per reaction), 4°C, streptavidin-peroxidase/TMB
[9] = biological target: chemokine receptors on THP-1 cells; experiment: 100 µM biotinylated peptide on THP-1 cells (4 x 10^5 per reaction), 4°C, streptavidin-peroxidase/TMB
[10] = biological target: chemokine receptors on THP-1 cells; experiment: binding to chemokine receptors on THP-1 cells; given as association constant

Substance	ΔA450nm, specific binding [4] [A450]	ΔA450nm, specific binding [5] [A450]	ΔA450nm, +100-fold excess unlabeled peptide [6] [A450]	ΔA450nm, +100-fold excess unlabeled peptide [7] [A450]	ΔA450nm, alone [8] [A450]	ΔA450nm, alone [9] [A450]	also measured
WVQ (peptide)							pKd [1]: 5.70
RANTES (from UniProt P13236 24-92) (ligand)							pKd [2]: 9.00
gp120:V3(IIIb) (peptide)	0.137	0.689	0.131	0.189	0.878	0.268	fold specific binding to Jurkat cells against THP-1 cells [3]: 5 fold
gp120:V3(BaL) (peptide)	0.535	< 0	0.107	0.168	0.167	0.642	
KQK (peptide)							pKd [10]: 6.30 and 6.00
